Biological target: GST-Rev3 (S. cerevisiae) (UniProt P14284)
Assay: affinity co-purification of the polymerase from yeast

Chain of UniProt P14284 (P14284 whole entry): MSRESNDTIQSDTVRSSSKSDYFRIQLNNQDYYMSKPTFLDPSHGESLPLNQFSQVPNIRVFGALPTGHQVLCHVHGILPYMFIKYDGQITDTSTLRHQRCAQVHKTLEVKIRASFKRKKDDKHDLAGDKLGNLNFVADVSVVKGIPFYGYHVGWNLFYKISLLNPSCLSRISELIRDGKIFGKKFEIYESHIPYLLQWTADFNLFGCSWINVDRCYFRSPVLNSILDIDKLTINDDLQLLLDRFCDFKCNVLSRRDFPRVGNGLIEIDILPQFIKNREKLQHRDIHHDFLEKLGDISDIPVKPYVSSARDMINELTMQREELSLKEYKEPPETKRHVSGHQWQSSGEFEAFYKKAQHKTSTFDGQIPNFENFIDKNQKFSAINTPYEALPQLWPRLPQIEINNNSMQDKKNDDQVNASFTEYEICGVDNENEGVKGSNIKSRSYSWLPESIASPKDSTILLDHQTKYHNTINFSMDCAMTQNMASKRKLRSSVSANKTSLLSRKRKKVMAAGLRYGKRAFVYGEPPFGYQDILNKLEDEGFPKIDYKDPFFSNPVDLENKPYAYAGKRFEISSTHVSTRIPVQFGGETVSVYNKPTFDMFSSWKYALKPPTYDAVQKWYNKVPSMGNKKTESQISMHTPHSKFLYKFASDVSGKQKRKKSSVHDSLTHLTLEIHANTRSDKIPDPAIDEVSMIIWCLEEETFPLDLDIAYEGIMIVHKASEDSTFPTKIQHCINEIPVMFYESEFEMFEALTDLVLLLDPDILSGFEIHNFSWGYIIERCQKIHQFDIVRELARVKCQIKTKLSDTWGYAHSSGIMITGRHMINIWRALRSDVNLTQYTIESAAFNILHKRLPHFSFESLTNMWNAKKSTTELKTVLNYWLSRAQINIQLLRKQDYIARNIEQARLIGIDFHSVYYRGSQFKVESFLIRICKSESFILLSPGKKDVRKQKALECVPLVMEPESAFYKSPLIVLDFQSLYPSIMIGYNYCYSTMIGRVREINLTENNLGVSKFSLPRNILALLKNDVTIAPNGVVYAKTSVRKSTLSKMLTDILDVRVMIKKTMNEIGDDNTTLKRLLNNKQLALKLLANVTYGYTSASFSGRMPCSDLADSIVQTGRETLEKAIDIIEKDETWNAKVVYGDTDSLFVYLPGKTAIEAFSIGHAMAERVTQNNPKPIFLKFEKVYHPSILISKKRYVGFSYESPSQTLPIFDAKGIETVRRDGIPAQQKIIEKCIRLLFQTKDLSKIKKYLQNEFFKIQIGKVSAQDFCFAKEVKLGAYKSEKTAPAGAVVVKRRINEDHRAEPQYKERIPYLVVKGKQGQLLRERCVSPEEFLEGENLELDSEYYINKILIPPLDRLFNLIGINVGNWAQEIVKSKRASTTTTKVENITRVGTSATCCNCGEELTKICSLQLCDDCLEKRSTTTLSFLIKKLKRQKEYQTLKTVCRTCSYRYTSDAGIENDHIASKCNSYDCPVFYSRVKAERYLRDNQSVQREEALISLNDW

Question: How did the stoichiometry of the complex after Ni-chelate chromatography (percent) turn out when “Pol32 with an N-terminal His7 tag (from UniProt P47110 1-350) (natural protein)” was run?
Answer: The stoichiometry of the complex after Ni-chelate chromatography (percent) was 100%.
